{"source": "the supplement of paper PMC7125110", "parents": {"B1": {"name": "glmS ribozyme (parent)", "chain": "AUAAAAGCGCCAGAACUACAGAAAUGUAGUUGACGAGGAGGAGGUUUAUCGAAUUUUCGGCGGAUGCCUCCAAA"}}, "note": "± gives the standard error. Variants at the floor of the assay were thinned out.", "data": [{"variants_of": "B1", "assay": "self-cleavage kobs at 10000 uM GlcN6P; higher = faster cleavage; RNA array", "details": "with glucosamine-6-phosphate", "outline": "(§1)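 Glucosamine-6-phosphate, from 40 μM to 10 mM in HEPES/KCl/Mg(OAc)2 buffer, was flowed over sequenced MiSeq chips carrying barcoded ribozyme variants transcribed in situ by E. coli RNA polymerase. A hybridised Cy3 probe tracked the variants at 37 °C as tiles were imaged over ~14 h. kobs, kcat and KM were obtained by fitting normalised per-tile medians to exponential decays and then applying weighted Michaelis–Menten fits across concentrations.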", "units": {"self-cleavage kobs at 10000 uM GlcN6P": "s⁻¹"}, "values": [{"variant": "U31G C67A C71A", "self-cleavage kobs at 10000 uM GlcN6P": "0.000258 ± 6.9e-05"}, {"variant": "G35A G43C C67G C68G", "self-cleavage kobs at 10000 uM GlcN6P": "6.9e-05 ± 2e-05"}, {"variant": "C16U G29U C67G", "self-cleavage kobs at 10000 uM GlcN6P": "0.000292 ± 8.5e-05"}, {"variant": "U30C U46C G59U", "self-cleavage kobs at 10000 uM GlcN6P": "< 1e-05"}, {"variant": "C16U G40U G66U", "self-cleavage kobs at 10000 uM GlcN6P": "4.28e-05 ± 1.2e-05"}, {"variant": "U47C C67G C70U", "self-cleavage kobs at 10000 uM GlcN6P": "8.24e-05 ± 1.8e-05"}, {"variant": "U45A U55C U57C", "self-cleavage kobs at 10000 uM GlcN6P": "0.00033 ± 7.3e-05"}, {"variant": "A6C U31C G63U C71G", "self-cleavage kobs at 10000 uM GlcN6P": "< 1e-05"}, {"variant": "A15G G43A C58A", "self-cleavage kobs at 10000 uM GlcN6P": "< 1e-05"}, {"variant": "C10A G29U U55G C68G", "self-cleavage kobs at 10000 uM GlcN6P": "3.81e-05 ± 1.8e-05"}, {"variant": "A15U G44U C61A", "self-cleavage kobs at 10000 uM GlcN6P": "< 1e-05"}, {"variant": "U31A A33C", "self-cleavage kobs at 10000 uM GlcN6P": "4.61e-05 ± 1.8e-05"}, {"variant": "A33G C58U C67U", "self-cleavage kobs at 10000 uM GlcN6P": "< 1e-05"}, {"variant": "A12U G13U G29C", "self-cleavage kobs at 10000 uM GlcN6P": "3.79e-05 ± 1.5e-05"}, {"variant": "A48G U69G", "self-cleavage kobs at 10000 uM GlcN6P": "3.66e-05 ± 1.3e-05"}, {"variant": "G13U C61G C68G", "self-cleavage kobs at 10000 uM GlcN6P": "< 1e-05"}, {"variant": "A12U G37C U45A A48U C68U", "self-cleavage kobs at 10000 uM GlcN6P": "< 1e-05"}, {"variant": "C11G A39U G44U A48C", "self-cleavage kobs at 10000 uM GlcN6P": "< 1e-05"}, {"variant": "G7C A39C C61A C67A", "self-cleavage kobs at 10000 uM GlcN6P": "< 1e-05"}, {"variant": "A33G A39U U49C C68G", "self-cleavage kobs at 10000 uM GlcN6P": "< 1e-05"}, {"variant": "A6U A36C C58G", "self-cleavage kobs at 10000 uM GlcN6P": "< 1e-05"}, {"variant": "A12U G29C G41A", "self-cleavage kobs at 10000 uM GlcN6P": "0.000129 ± 4.9e-05"}, {"variant": "A12C A15U G40U", "self-cleavage kobs at 10000 uM GlcN6P": "0.00018 ± 4e-05"}, {"variant": "C11A U30C A39G", "self-cleavage kobs at 10000 uM GlcN6P": "0.000114 ± 2.3e-05"}, {"variant": "A14C A33U A36U G60U G62C", "self-cleavage kobs at 10000 uM GlcN6P": "< 1e-05"}, {"variant": "A12G G13U U56G C61U C68G C70A", "self-cleavage kobs at 10000 uM GlcN6P": "4.15e-05 ± 1.7e-05"}, {"variant": "A6G A33C A64G", "self-cleavage kobs at 10000 uM GlcN6P": "< 1e-05"}, {"variant": "G35C G37A C68G", "self-cleavage kobs at 10000 uM GlcN6P": "4.58e-05 ± 2e-05"}, {"variant": "G9U A15U A42C U57G", "self-cleavage kobs at 10000 uM GlcN6P": "< 1e-05"}, {"variant": "A14U A42G C61G", "self-cleavage kobs at 10000 uM GlcN6P": "< 1e-05"}, {"variant": "C11A A12C U57G C67G", "self-cleavage kobs at 10000 uM GlcN6P": "3.81e-05 ± 1.5e-05"}, {"variant": "A14U G37C A64C", "self-cleavage kobs at 10000 uM GlcN6P": "< 1e-05"}, {"variant": "G35A G37C U47C", "self-cleavage kobs at 10000 uM GlcN6P": "< 1e-05"}, {"variant": "C8A G9A C10U A33G A36G A39U U47C C58A", "self-cleavage kobs at 10000 uM GlcN6P": "< 1e-05"}, {"variant": "C16U G38U A52C C58A", "self-cleavage kobs at 10000 uM GlcN6P": "< 1e-05"}, {"variant": "G7A G35A A36G", "self-cleavage kobs at 10000 uM GlcN6P": "< 1e-05"}, {"variant": "A15U U30G A48U A53G", "self-cleavage kobs at 10000 uM GlcN6P": "0.000112 ± 3.6e-05"}, {"variant": "U27G A42U", "self-cleavage kobs at 10000 uM GlcN6P": "0.000136 ± 3e-05"}, {"variant": "A14G G44C C67U", "self-cleavage kobs at 10000 uM GlcN6P": "0.00278 ± 0.0013"}, {"variant": "G40A U45A G66A", "self-cleavage kobs at 10000 uM GlcN6P": "0.00649 ± 0.0018"}, {"variant": "G13C G35U U47C A48C C61G C70U", "self-cleavage kobs at 10000 uM GlcN6P": "< 1e-05"}, {"variant": "C34A U47G A52U C70A", "self-cleavage kobs at 10000 uM GlcN6P": "0.00102 ± 0.00046"}, {"variant": "A42G G59U", "self-cleavage kobs at 10000 uM GlcN6P": "4.33e-05 ± 9.8e-06"}, {"variant": "A6C G35C A52C G66U", "self-cleavage kobs at 10000 uM GlcN6P": "< 1e-05"}, {"variant": "C19A G35C U47C U49G G51U C68U C71U", "self-cleavage kobs at 10000 uM GlcN6P": "< 1e-05"}, {"variant": "G41U A53G C68U", "self-cleavage kobs at 10000 uM GlcN6P": "4.96e-05 ± 1.3e-05"}, {"variant": "G29A G32U A52G", "self-cleavage kobs at 10000 uM GlcN6P": "3.76e-05 ± 1.7e-05"}, {"variant": "A12C U31A A42G A52G", "self-cleavage kobs at 10000 uM GlcN6P": "0.000429 ± 9.6e-05"}, {"variant": "A12U U30G A36U G41U A52U", "self-cleavage kobs at 10000 uM GlcN6P": "< 1e-05"}, {"variant": "G29C G40A A42G", "self-cleavage kobs at 10000 uM GlcN6P": "8.98e-05 ± 2.9e-05"}, {"variant": "C16U G26U U31C", "self-cleavage kobs at 10000 uM GlcN6P": "5.34e-05 ± 1.7e-05"}, {"variant": "A6U G7C A14G U57C", "self-cleavage kobs at 10000 uM GlcN6P": "< 1e-05"}, {"variant": "A14C U45C A64G G66A", "self-cleavage kobs at 10000 uM GlcN6P": "0.000542 ± 9.2e-05"}, {"variant": "G9C U46G A53U U55G", "self-cleavage kobs at 10000 uM GlcN6P": "< 1e-05"}, {"variant": "G35C A39C G41U U49G", "self-cleavage kobs at 10000 uM GlcN6P": "< 1e-05"}, {"variant": "G13U C58U", "self-cleavage kobs at 10000 uM GlcN6P": "6.77e-05 ± 6.2e-06"}, {"variant": "G13C U49A G60U C61A", "self-cleavage kobs at 10000 uM GlcN6P": "< 1e-05"}, {"variant": "G29A G43U G51A", "self-cleavage kobs at 10000 uM GlcN6P": "< 1e-05"}, {"variant": "A14U U31C U46C", "self-cleavage kobs at 10000 uM GlcN6P": "0.00011 ± 1.7e-05"}, {"variant": "G29U G41U U45C C70U", "self-cleavage kobs at 10000 uM GlcN6P": "0.000108 ± 2.4e-05"}, {"variant": "C16U G32A C58A U69A", "self-cleavage kobs at 10000 uM GlcN6P": "7.78e-05 ± 1.2e-05"}, {"variant": "A42G C58U", "self-cleavage kobs at 10000 uM GlcN6P": "9.52e-05 ± 1.4e-05"}, {"variant": "A12U A15G U46G", "self-cleavage kobs at 10000 uM GlcN6P": "0.00932 ± 0.0019"}, {"variant": "U31A A36C", "self-cleavage kobs at 10000 uM GlcN6P": "< 1e-05"}, {"variant": "A15G U56G C68G", "self-cleavage kobs at 10000 uM GlcN6P": "6.13e-05 ± 1.3e-05"}, {"variant": "A39G U56G C68U", "self-cleavage kobs at 10000 uM GlcN6P": "0.00322 ± 0.0012"}, {"variant": "G7U C34G G59C", "self-cleavage kobs at 10000 uM GlcN6P": "< 1e-05"}, {"variant": "U17A A18C C19A A20G A52G U57G C67A", "self-cleavage kobs at 10000 uM GlcN6P": "8.22e-05 ± 1.7e-05"}, {"variant": "A42C C61U C68U", "self-cleavage kobs at 10000 uM GlcN6P": "< 1e-05"}, {"variant": "U30C G32C U47G C50G A53U A64G C68A C70A", "self-cleavage kobs at 10000 uM GlcN6P": "0.000334 ± 8.3e-05"}]}, {"variants_of": "B1", "assay": "self-cleavage kobs at 2500 uM GlcN6P; higher = faster cleavage; RNA array", "details": "with glucosamine-6-phosphate", "outline": "as §1", "units": {"self-cleavage kobs at 2500 uM GlcN6P": "s⁻¹"}, "values": [{"variant": "U57A C58A C70G", "self-cleavage kobs at 2500 uM GlcN6P": "0.000143 ± 3.9e-05"}, {"variant": "A42U A53G C61G", "self-cleavage kobs at 2500 uM GlcN6P": "< 1e-05"}, {"variant": "U56A U57C C67A", "self-cleavage kobs at 2500 uM GlcN6P": "4.71e-05 ± 2e-05"}, {"variant": "U47C C67G C70U", "self-cleavage kobs at 2500 uM GlcN6P": "0.000129 ± 4.1e-05"}, {"variant": "U45A U55C U57C", "self-cleavage kobs at 2500 uM GlcN6P": "8.32e-05 ± 1.8e-05"}, {"variant": "A48G U69G", "self-cleavage kobs at 2500 uM GlcN6P": "0.000101 ± 3.7e-05"}, {"variant": "A48C U55C G63U", "self-cleavage kobs at 2500 uM GlcN6P": "< 1e-05"}, {"variant": "A52U C68U C70U", "self-cleavage kobs at 2500 uM GlcN6P": "5.68e-05 ± 1.7e-05"}, {"variant": "A42U A53G C61A C67G", "self-cleavage kobs at 2500 uM GlcN6P": "< 1e-05"}, {"variant": "G51A A53C G62U", "self-cleavage kobs at 2500 uM GlcN6P": "< 1e-05"}, {"variant": "A52U C67A C71U", "self-cleavage kobs at 2500 uM GlcN6P": "7.56e-05 ± 3.1e-05"}, {"variant": "G44A A48G C67G", "self-cleavage kobs at 2500 uM GlcN6P": "8.88e-05 ± 2.9e-05"}, {"variant": "U47G A52C G60C C71A", "self-cleavage kobs at 2500 uM GlcN6P": "< 1e-05"}, {"variant": "U45A U47G G51U A64G U65G", "self-cleavage kobs at 2500 uM GlcN6P": "< 1e-05"}]}]}
